Experimental data taken from US20100184658A1 (published 2010).

What was measured:
Assay in all cases: cell-based or functional assay
IKBKB (IKK beta) IKK2 = biological target: T1, IKBKB (IKK beta) IKK2 (human (printed as (h)), UniProt O14920 1-756, limits assumed)
T1 sequence (looked up): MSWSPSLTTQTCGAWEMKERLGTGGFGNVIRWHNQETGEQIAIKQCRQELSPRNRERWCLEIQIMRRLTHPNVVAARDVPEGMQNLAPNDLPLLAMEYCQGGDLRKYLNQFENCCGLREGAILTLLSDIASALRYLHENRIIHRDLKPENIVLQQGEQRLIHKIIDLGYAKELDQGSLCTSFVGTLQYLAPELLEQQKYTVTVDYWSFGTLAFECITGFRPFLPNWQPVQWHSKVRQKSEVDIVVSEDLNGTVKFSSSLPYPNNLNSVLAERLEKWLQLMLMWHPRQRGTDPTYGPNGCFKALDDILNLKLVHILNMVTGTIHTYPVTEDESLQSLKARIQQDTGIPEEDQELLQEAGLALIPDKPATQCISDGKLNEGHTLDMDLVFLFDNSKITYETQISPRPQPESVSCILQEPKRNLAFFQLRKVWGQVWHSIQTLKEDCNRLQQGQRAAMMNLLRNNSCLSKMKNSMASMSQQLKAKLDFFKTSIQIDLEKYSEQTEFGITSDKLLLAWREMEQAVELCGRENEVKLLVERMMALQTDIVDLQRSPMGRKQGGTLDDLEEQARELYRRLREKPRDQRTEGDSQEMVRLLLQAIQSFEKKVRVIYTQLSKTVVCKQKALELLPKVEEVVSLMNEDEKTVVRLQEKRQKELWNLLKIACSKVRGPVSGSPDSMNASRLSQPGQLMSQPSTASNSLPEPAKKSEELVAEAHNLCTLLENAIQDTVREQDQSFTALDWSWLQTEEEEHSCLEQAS

GSK3β(h) = GSK3β(h) (human (printed as (h)), UniProt P49841 1-420, limits assumed)
GSK3β(h) (human (printed as (h)), UniProt P49841 1-420, limits assumed), sequence (P49841 whole entry): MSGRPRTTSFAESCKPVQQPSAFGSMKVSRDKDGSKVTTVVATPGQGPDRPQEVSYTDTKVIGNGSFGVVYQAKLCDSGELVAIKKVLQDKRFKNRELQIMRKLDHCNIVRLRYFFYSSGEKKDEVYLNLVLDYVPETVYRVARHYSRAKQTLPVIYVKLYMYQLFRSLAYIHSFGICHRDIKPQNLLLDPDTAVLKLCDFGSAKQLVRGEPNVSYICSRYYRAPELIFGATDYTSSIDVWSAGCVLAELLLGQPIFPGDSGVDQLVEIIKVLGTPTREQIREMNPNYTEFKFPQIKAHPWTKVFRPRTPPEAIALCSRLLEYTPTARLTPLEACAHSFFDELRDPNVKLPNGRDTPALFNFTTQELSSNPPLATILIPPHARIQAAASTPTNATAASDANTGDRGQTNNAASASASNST

PDK1 = biological target: T2, PDK1 (human (printed as (h)), UniProt O15530 1-556, limits assumed)
T2 sequence (looked up): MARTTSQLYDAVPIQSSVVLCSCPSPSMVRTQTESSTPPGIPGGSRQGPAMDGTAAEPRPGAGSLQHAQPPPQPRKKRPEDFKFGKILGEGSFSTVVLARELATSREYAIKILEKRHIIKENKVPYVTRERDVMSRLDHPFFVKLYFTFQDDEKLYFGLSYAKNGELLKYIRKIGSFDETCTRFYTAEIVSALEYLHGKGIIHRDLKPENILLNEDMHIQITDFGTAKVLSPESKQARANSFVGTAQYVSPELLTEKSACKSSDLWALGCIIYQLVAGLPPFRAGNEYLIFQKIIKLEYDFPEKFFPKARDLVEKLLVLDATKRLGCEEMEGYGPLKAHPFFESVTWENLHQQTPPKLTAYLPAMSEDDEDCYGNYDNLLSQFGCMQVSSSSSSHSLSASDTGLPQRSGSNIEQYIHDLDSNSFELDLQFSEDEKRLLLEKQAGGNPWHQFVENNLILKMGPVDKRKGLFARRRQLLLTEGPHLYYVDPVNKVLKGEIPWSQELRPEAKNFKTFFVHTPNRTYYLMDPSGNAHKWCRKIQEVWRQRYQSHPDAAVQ

PRKCZ (PKC zeta) = biological target: T3, PRKCZ (PKC zeta) (human (printed as (h)), UniProt Q05513 1-592, limits assumed)
T3 sequence (looked up): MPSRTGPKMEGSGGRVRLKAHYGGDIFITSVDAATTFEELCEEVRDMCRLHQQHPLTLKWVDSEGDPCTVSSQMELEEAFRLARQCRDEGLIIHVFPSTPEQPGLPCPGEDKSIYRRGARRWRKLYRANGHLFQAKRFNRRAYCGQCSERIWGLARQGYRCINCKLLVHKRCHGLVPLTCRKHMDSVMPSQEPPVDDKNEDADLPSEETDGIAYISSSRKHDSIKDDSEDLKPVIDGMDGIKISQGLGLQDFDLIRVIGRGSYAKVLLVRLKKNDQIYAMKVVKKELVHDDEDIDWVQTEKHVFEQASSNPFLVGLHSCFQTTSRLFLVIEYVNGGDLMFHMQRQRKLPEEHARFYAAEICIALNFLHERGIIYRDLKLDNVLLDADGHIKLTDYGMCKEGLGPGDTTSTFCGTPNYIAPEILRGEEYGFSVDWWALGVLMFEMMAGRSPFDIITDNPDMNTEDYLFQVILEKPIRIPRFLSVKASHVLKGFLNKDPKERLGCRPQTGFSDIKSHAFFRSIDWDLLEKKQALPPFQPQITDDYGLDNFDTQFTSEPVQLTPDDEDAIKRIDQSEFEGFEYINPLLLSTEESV

[1] = biological target: T4, SGK (SGK1) Serum/glucocorticoid regulated kinase (human (printed as (h)), UniProt O00141 60-431, limits assumed)
T4 sequence (looked up): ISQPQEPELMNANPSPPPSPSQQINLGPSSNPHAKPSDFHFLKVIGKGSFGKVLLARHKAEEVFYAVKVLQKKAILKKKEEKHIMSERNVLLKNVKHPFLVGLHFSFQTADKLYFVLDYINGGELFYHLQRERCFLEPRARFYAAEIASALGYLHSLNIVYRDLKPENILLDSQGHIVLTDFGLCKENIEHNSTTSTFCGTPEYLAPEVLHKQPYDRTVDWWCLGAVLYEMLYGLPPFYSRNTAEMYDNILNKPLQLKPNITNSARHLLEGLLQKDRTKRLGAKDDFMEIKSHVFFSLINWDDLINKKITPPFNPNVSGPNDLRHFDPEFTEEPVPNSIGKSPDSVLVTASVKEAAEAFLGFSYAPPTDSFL

Q: SGRPPMIVWFNRPFLIAVSHTHGQTILFMAKVINPVGA [D3 peptide] was tested. Which “D3 at 0.1 µM % activity” value (IKBKB (IKK beta) IKK2) did it give?
A: Its value is 103%.

Q: What about the “D3 at 1 µm % activity” value (IKBKB (IKK beta) IKK2) of the same binder?
A: The value was 71%.

Q: What about the “D3 at 0.1 µM % activity” value (GSK3β(h)) of the same binder?
A: The value was 101%.

Q: What about the “D3 at 1 µm % activity” value (GSK3β(h)) of the same binder?
A: Its value is 100%.

Q: And the “D3 at 0.1 µM % activity” value (PDK1)?
A: Its value is 98%.

Q: And the “D3 at 1 µm % activity” value (PDK1)?
A: The value was 108%.

Q: And the “D3 at 0.1 µM % activity” value (PRKCZ (PKC zeta))?
A: Its value is 95%.

Q: What about the “D3 at 1 µm % activity” value (PRKCZ (PKC zeta)) of the same binder?
A: The value was 42%.

Q: What about the “IC50” value (PRKCZ (PKC zeta)) of the same binder?
A: Its value is 1040 nM.

Q: What about the “D3 at 0.1 µM % activity” value [1] of the same binder?
A: The value was 74%.

Q: What about the “D3 at 1 µm % activity” value [1] of the same binder?
A: Its value is 5%.

Q: What about the “IC50” value [1] of the same binder?
A: The value was 325 nM.
